Data from patent publication US20230357414A1 (SYNTHEKINE, published 2023).

B1: VHH4 (VHH)
VHH: QVQLQESGGGSVQAGGSLRLSCVASGFTISRYCMGWLRQAPGKQREGVAIIERDGRTGYADSVKGRFTISKDNAKNTLYLQMNSLKPGDTAMYYCGAIEGSCRPDFGYRGQGTQVTVSS
notes: Camel VHH, tested as a periplasmic extract of a phage clone; also called anti-human IL12Rb2 VHH4; hIL12Rb2 VHH; not shown: HA/His tag encoded by the pMECS phagemid
B2: VHH9 (VHH)
VHH: QVQLQESGGGSVQAGGSLRLSCAASGFTISRYCMGWLRQAPGKQREGVAIIERDGRTGYADSVKGRFTISKDNAKNTLYLQMNSLKPEDTAMYFCGAIEGSCRPDFGYRGQGTQVTVSS
notes: Camel VHH, tested as a periplasmic extract of a phage clone; also called anti-human IL12Rb2 VHH9; hIL12Rb2 VHH; not shown: HA/His tag encoded by the pMECS phagemid
B3: VHH17 (VHH)
VHH: QVQLQESGGGSVQAGGSLRLSCAASGLTISRYCMGWLRQAPGKQREGVAIIERDGRTGYADSVKGRFTISKDNAKNTLYLQMNSLKPEDTAMYYCGAIEGSCRPDFGYRGQGTQVTVSS
notes: Camel VHH, tested as a periplasmic extract of a phage clone; also called anti-human IL12Rb2 VHH17; hIL12Rb2 VHH; not shown: HA/His tag encoded by the pMECS phagemid
B4: VHH13 (VHH)
VHH: QVQLQESGGGSVQAGGSLRLSCAASGFTISKYCMGWLRQAPGKQREGVAIIERDGRTGYADSVKGRFTISKDNAKNTLYLQMNSLKPEDTAMYYCGAIEGSCRPDFGYRGQGTQVTVSS
notes: Camel VHH, tested as a periplasmic extract of a phage clone; also called anti-human IL12Rb2 VHH13; hIL12Rb2 VHH; not shown: HA/His tag encoded by the pMECS phagemid
B5: VHH11 (VHH)
VHH: QVQLQESGGGSVQAGGSLRLSCAASGFTVSRYCMGWLRQAPGKQREGVAIIERDGRTGYADSVKGRFTISKDDAKNTLYLQMNSLKPEDTAMYYCGAIEGSCRPDFGYRGQGTQVTVSS
notes: Camel VHH, tested as a periplasmic extract of a phage clone; also called anti-human IL12Rb2 VHH11; hIL12Rb2 VHH; not shown: HA/His tag encoded by the pMECS phagemid
B6: VHH7 (VHH)
VHH: QVQLQESGGGSVQAGGSLRLSCAASGVTYSRYCMGWFRQAPGLERERVATIYSRGIITYYTDSVKGRFTISQDSAKKTVYLQMNSLKPEDTAMYYCAATRETYGGSGDCDYESVYNYWAQGTQVTVSS
notes: Camel VHH, tested as a periplasmic extract of a phage clone; also called anti-human IL12Rb2 VHH7; hIL12Rb2 VHH; not shown: HA/His tag encoded by the pMECS phagemid
B7: VHH14 (VHH)
VHH: QVQLQESGGGSVQAGGSLRLSCAASGVTYSRYCMGWFRQAPGLERERVAHIYSRGIITYYTDSVKGRFTISQDSAKKTVYLQMNSLKPEDTAMYYCAATRETYGGSGDCGYESVYNYWAQGTQVTVSS
notes: Camel VHH, tested as a periplasmic extract of a phage clone; also called anti-human IL12Rb2 VHH14; hIL12Rb2 VHH; not shown: HA/His tag encoded by the pMECS phagemid
B8: VHH12 (VHH)
VHH: QVQLQESGGGSVQAGGSLRLSCAASGVTYSRYCMGWFRQAPGLERERVATIYSRGIITYYTDSVKGRFTISQDSAKKTVYLQMNMLKPEDTAMYYCAATRETYGGSGDCDYESVYNYWAQGTQVTVSS
notes: Camel VHH, tested as a periplasmic extract of a phage clone; also called anti-human IL12Rb2 VHH12; hIL12Rb2 VHH; not shown: HA/His tag encoded by the pMECS phagemid
B9: VHH16 (VHH)
VHH: QVQLQESGGGSVQAGGSLRLSCAASGVTYSRYCMGWFRQAPGLERERVAHIYSRGIITYYTDSVKGRFTISQDSAKKTVYLQMNSLKPEDTAMYYCAATRETYGGSGDCSYESVYNHWAQGTQVTVSS
notes: Camel VHH, tested as a periplasmic extract of a phage clone; also called anti-human IL12Rb2 VHH16; hIL12Rb2 VHH; not shown: HA/His tag encoded by the pMECS phagemid
B10: VHH3 (VHH)
VHH: QVQLQESGGGSVQAGGSLRLSCTASGLTFDDVEMAWYRQGPGDDYDLVSSINTDSRVYYVDSVKDRFTISRDNAKNTLYLQMNNLKPEDTAVYYCAADPWGGDLRGYPNYWGQGTQVTVSS
notes: Camel VHH, tested as a periplasmic extract of a phage clone; also called anti-human IL12Rb2 VHH3; hIL12Rb2 VHH; not shown: HA/His tag encoded by the pMECS phagemid
B11: VHH6 (VHH)
VHH: QVQLQESGGGLVQAGGSLRLSCQASGYTYGLFCMGWFRQVSGKKREGVAVVDSPGGRHVADSLKGRFTISKDNANNILYLDMTNLKSEDTATYYCAADPEKYCFLFSDAGYQYWGQGTQVTVSS
notes: Camel VHH, tested as a periplasmic extract of a phage clone; also called anti-human IL12Rb2 VHH6; hIL12Rb2 VHH; not shown: HA/His tag encoded by the pMECS phagemid
B12: VHH5 (VHH)
VHH: QVQLQESGGGLVQPGGSLKLSCAASGFTFSTYAMSWVRQAPGKEPEWISRISSGGGNTYYADAVKGRFAISRDNAKNTLYLQLNSLKTEDTAIYVCTMDDYYGGSWHPISRGHGTQVTVSS
notes: Camel VHH, tested as a periplasmic extract of a phage clone; also called anti-human IL12Rb2 VHH5; hIL12Rb2 VHH; not shown: HA/His tag encoded by the pMECS phagemid

The binders below were run against T1, extracellular domain of human IL12Rb2 (amino acids 24-622 of hIL12Rb2, UniProt Q99665) (human, UniProt Q99665 24-622) (assay: periplasmic extract ELISA on antigen-coated plate; positive if A450 at least threefold over PBS-coated control).
T1 construct: also called hIL12Rb2 ECD; hIL12Rb2-ECD
T1 sequence: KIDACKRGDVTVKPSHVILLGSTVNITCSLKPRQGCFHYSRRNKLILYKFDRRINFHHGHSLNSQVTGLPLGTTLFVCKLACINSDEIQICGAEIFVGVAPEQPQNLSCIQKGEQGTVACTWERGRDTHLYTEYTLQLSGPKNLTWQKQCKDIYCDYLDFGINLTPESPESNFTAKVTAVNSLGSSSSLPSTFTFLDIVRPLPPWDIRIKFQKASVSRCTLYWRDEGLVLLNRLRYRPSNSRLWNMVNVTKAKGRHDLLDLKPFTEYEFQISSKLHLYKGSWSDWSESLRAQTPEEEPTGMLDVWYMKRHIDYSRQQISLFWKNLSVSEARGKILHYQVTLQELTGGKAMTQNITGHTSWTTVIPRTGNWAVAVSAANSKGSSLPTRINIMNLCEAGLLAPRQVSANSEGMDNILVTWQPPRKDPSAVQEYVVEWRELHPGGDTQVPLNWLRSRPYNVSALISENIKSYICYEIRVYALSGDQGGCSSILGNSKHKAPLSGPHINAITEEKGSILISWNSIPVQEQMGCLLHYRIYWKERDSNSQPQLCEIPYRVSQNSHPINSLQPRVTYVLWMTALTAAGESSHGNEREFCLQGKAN
Procedure: Upon completion of the biopanning of Example 3, three 96-well plates of individual phage clones were isolated in order to perform periplasmic extract ELISA (PE-ELISA) on IL12Rb2 coated plates to identify positive VHH binders that selectively bound IL12Rb2. A 96-well plate was coated with IL12Rb2 and PBS under the same conditions. Next, wells were blocked at 37° C. for 1 h. Then, 100 μl of extracted antibodies was added to each well and incubated for 1 h. Subsequently, 100 μl of anti-tag polyclonal antibody conjugated to HRP was added to each well and incubated at 37° C. for 1 h. Plates were developed with TMB substrate. The reaction was stopped by the addition of H2SO4. Absorbance at 450 nm was read on a microtiter plate reader. Antibodies with absorbance of the antigen-coated well at least threefold greater than PBS-coated control are VHHs that specifically bind to IL 12Rb2. Positive clones were sequenced, and sequences analyzed to identify unique clonotypes
B1: binds.
B2: binds.
B3: binds.
B4: binds.
B5: binds.
B6: binds.
B7: binds.
B8: binds.
B9: binds.
B10: binds.
B11: binds.
B12: binds.
